Data taken from a protein production outcome set (Wang et al. 2014).

Experiment: label from the status in PepcDB records

| Sequence | protein production |
| --- | --- |
| MSQQKSDFADDADIDESLDELASEETIEETVENLEANGFEVIVVNSADDALAELQSLIPAEASVMNGHSTTLEEIGFDEYLSDGDHGWESLPEEIWSIDDDAKRQAARRESQTADYFLGGINGISQTGELVAADRSGSRIGAYPFAASNVVIVSGVNKIVPTLEDALDRLETVAYPLENERAKEAYGVDSAIAKQLILRQELEEGRTTVVLIREHLGYLEHHHHHH | not failed |
| MGLEQAVVDFFNHMGLLNLTVGNVVMIIVGLTLVYLAIRYEMEPLLLLPIGISAVLVNLPLSHMANWPLAPQLPPEIQENIFATISYLSQQYGPPGLFDLIYYLLIKTEVVPLLIFFGLGAMTDFGPMIADPKTALLGAAAQIGVFVAMLVALALGFNLKEAASIGIIGGADGPTTIYLTTKLAPHILSATAVAAYSYMSLVPLIQPPVIKALTTPEERRIRMEQLRPVSKREKILFPIASMIVIGLLVPSAAPLIGMLMIGNLFRESGVVQRLSKAAQEELMNIVTIFLGLGIGSTMRAESFLTPKTLMILALGVVAFASATAGGVLFGKIMMKISGGKINPMIGAAGVSAVPMSARVVQRLASEEDPGNFILMHAMGPNVAGVIGTAVVAGVFLSALG | failed |
| MTDTTAEPSRPSGRLWAYLWQLHAETKAYLTLDAPAIASNIDSLSESEQQLAREVFPDGGQSTADSDGGSATDAGSRGGDDSSPFDVGGSYSLRQKIGLVLGPLLFAALLFSPTPDGLPAEGQAVAAVTAWVAVWWMSEAIPIPAASLLPIVLFPLAGALPVEPTATSYGHPLVFLFMGGFFLAMAMQRWGLHRRIALRTIKLVGTEPSRLILGFMLATAILSMWVSNSATVMMMVPIALAVIYQTADLIDDSDVDIDTGVGEFSFGIALMLCIAYGASVGGVATLIGTPPNILFAGQAEALFGQSVSFAEWMLYGVPIAALGLVTVYIYVTRIAMTPQFDSLPAGTETIDRELAELGSMSQQEKLVAVVFVGMAAAWIGASLIEPVLDITPPDDADTIVAIGGALVLFTFPTTGENGDQTFLLDWSSAVEIPWGVILLFGGGLAIAAGFSETGLAVWIGEQLQLLEGVQMAAILLAVVVMTIFLTEVTSNTATTAMLMPILGAVAIGISVHPFGLMIAGATAASFAFMLPVATPPNAIVFGSGYITLPQMARVGVGLNVIGIVLITLLALVWLPIAWGIELATLPAEFADAFDS | failed |
| MMNYKQLLIDNFAFKTSYVAQFVPGMSIKETKDYIAVDCGLPADTFNIITLLNNNLTEGVEKLYKEVEYYNQKKFPMSVWLWDEEQERDIKSELNKIGLKEAEQNIAMVADLKTISPTINMPVSFTIQQASSPGLIKKFGETLANLFGTSEEAIHVQAFYNQISNLDLWNSENMKLFLGFYEGEIVTVGSLICSKDSIGIYDIATKEEMRGRGFGSTMFNFLLQEAQKFKNTYCVLQASTDGINIYKKSGFQAIGKMTVLENRHVIE | failed |
| MATASIAIAETPLVNYALRRGDDALVLGHRLSEWCGHAPMLEEDMALANIGLDLIGQARELFNYAAEVEGAANTEDSLAYLRDVRQYRNLLLVEQPNGDFARTMLRQLFYSAFADSYWRAMMGSSDPTLAAIAAKSEKESAYHLRHASEWVIRLGDGTEESHRRAQAAVDELWAFTGEMFQVDDGDAALIADGIAIDPERLRAGWSETVASVLARATLQQPSSSWMQKGGRAGHHSEHLGHLLSELQSLQRSFPGATW | failed |
| MKRKLVTSALPYVNNFPHLGNLIQVLSADVFARFCRLKEYETLYICGTDEYGTATETKALEEKKSPEELCSFYHAIHAEIYNWFNIAFDYFGRTSTPQQTEITQGIFNDLDKNGYITEHTIEQLYCPSCKRFLADRYVLGTCPSCSYDGARGDQCEHCGKLLDPTDLKEPRCSSCGAAPEVRSTTHLYINLPKIVPEYEKWMPKTAEEGRWSNNALQMSKSWLRDGLQERAITRDLKWGIPVPKKGFEDKVFYVWFDAPIGYISITKCWADLAGKDWKAWWLDQNDVELFQFIGKDNIPFHTVIFPCSLIGSGKNWTKLFHMSGTEYLNYENGKFSKSKGVGVFGNDAKESGIPADMWRFYIFYNRPEKNDTQFTWKDFQERVNSELIGNLCNLVNRTATFIHRYYDGKIPQVDGAKSGREDIKSMVKSLREAASASFKKITELSDWAELRDSFHEAFALSSVANKAFQDGEPWKRRETDPEYAEALMSELCYLIKDILILIHPYMPQYADQAAGFFGQKIWSGNIFDGKAPQFNKPEGSFLSWKNLGEREGLKTVENPVIIFKTLDNKVIDAYRERYSGSQKDRKKSEKGCSACKDSGSSKSDAAASSAKPEVKLSPAELFSKKIALKTAKIISVERHPDADKLYIEKLDDGSGEERTILSGLVPFLKEDEILGKTVIIADNLKPRKMRGIESKGMLLAASWYDEEEKEHVELLQAPWAAPGTPVILEGDADISDPEAVKAFYAQKPAAIDADTFFAAPILIEDYIPKIEGKKLLVAGKEMKLEKVKTGEAG | failed |
| MSLTLLKGRRKVDTIKVGILGYGLSGSVFHGPLLDVLDEYQISKIMTSRTEEVKRDFPDAEVVHELEEITNDPAIELVIVTTPSGLHYEHTMACIQAGKHVVMEKPMTATAEEGETLKRAADEKGVLLSVYHNRRWDNDFLTIKKLISEGSLEDINTYQVSYNRYRPEVQARWREKEGTATGTLYDLGSHIIDQTLHLFGMPKAVTANVMAQRENAETVDYFHLTLDYGKLQAILYGGSIVPANGPRYQIHGKDSSFIKYGIDGQEDALRAGRKPEDDSWGADVPEFYGKLTTIRGSDKKTETIPSVNGSYLTYYRKIAESIREGAALPVTAEEGINVIRIIEAAMESSKEKRTIMLEHEGHHHHHH | not failed |
| MKTRKIPLRKSVVSNEVIDKRDLLRIVKNKEGQVFIDPTGKANGRGAYIKLDNAEALEAKKKKVFNRSFSMEVEESFYDELIAYVDHKVKRRELGLE | not failed |
| MRSAGEPRWVVPILASPLLWHAARFALVSAYLLGGVVKLFDFAAAVAEQERFGLHPGWLWATLAIVVELGGSLLVLADRLVWLGAGALGVLTFVAMLTANAFWSAPAADRWIQANAFFEHFGLIAGFVLLAMLSDQRRSTS | failed |
| MNSFLIIIFRLYLPISVAILTGVLLSFSLEKLQGNFSKNKHLSLVVPNYLGKFLFWFGVPLGVINFVHKANLSGGIWLSPIVAWGAVVLGIFLSWLWVQTLFPKPSLAFQTSFTLVSTVGNTSYIGFPIILLLPQLGPDYFGWAILYDLLGTFLAAYGLGSILASRSLLTNPNKIISFGLDSPVFPINQKTITDHIKSSILKIFQWLKNNLVILVKNPTLIAFIIGLILRPIVFPPWLDISLGWFAWSIIMLSLILMGMRLQQLDSWGNIKIAFSAVSIKMLLVPLVIAMALTTAGLSGPPRLVLVLQSSMPSAFASLILAEAYDLDRDLVVTCLGLSSLMLFFTLPFWLWGFTTW | failed |
| NGDPQWLVQAARTAVLRTYEYGRALLKGLFTDSPFNIDIFDTQLRFVGLNIAERRAGVFQGTEYSGHTMREMAPPGLLDVDALEARQRRVLETGKALIDTEVVGHPVANSPREYVWSESILPLRDPSGRVIALGHVVSDV | failed |
| MVKPLRLNDRHQQILRATVQHYIATAEPVGSHTLAQEYQFAVSSATIRNALGQLEKAGLLYQPHVSAGRVPSDSGYRIYVDNLLTWSDRQSRTVKQRLENEINGDNWHFEALIQRMGQILAGLSGYIALITFPQTETVQLRHLQLMLLPSHQILIILVTDSYHTHSATLDLPAAMEAKEEGELEQELAIFSNFLNAQLRGKNLSELSHLNWQELDQKFSIYADFLKGLQQQIKPLLQRRMAGPLVVHGVSKVIQQPEFSQLEQVQMLLSLLEQEQDKLFSLLFDPDNYGDNLANLGQEMNLLTGETMPKTRPVVTIRIGAENPLESMHPCTLVSAIYRQQEIPMGSVSILGPTRMVYQQTIPLVEQAAECLSEALSKN | failed |
| MKRLMFIGPSQCGKTSLTQSLRGEALHYKKTQAIEWSPMAIDTPGEYLENRCLYSALLTSACEADVIALVLNADAQWSPFSPGFTAPMNRPTIGLVTKADLAEPQRISLVAEWLTQAGAQQIFITSALNNSGLDAVLDFLNSKEPLCLTKLEHHHHHH | not failed |
| MTRTSKIAVIGGGMAGLAAAAGFDDAGFVVELYERQSYDSKRVNCGEAMTAVSKIPLEPTVENGFLNPLPAMEVEVYDGIDADRHRTGAGTFPAADTYITDRNVVEQSWAEQLSEKGVDIHENQSITRTDFHEFTDEYDLVVDATGQPSLSSKALGTTNEYSGYMVALNSDVEGDFTELYPNSRIILENYTGYSWAFPKTSQRANVGIGWTVSDRPSDYMKALREACKRNGWPVPSQERTNVAIIPEGPSLDPDRTYLPEHSVVRVGDAAGIANRLTGKGISQAVESGFLAAELANSGQLHNFPDSLYQRMKTEYIFATVVRYFLETRNPKVLGAAIRAAAGIDIEDVDRSPSTVLLRLLRHPVLFARIFSRRRVLNRVYGGMTNQWELIN | failed |
| MIDPRPVGYILGLLVATLGALMLVPMALDLAAGDRHWLSFAETATITTVAGSMLALACANGRGQGTGLSLQQSFLLTTGAWVLLPVFGALPFMMGRPDASFTDAVFEAMSGFTTTGTTVFVGLDALPLGTNLWRGMLQWLGGLGIVIVAMIFLPVMKVGGMQFFRSEGFDTLGKILPRALDISTALIQIYLVLTMACVMTFLALGIPLFEAVVHALTTVSTGGFSSSDRSFGLFQGPAEYACAFFMVLASLPFVRFVQLAQGTFLPLWRDPQVRAYLRWNGYAIGLIVAYEVVTRNAPVLPTLRETTFNVISTFSGTGFSSVDLGLWGTFPFVLLIVVGLIGGCTSSTGCSVKVFRYLILLEAIKVQIRRLQSPSAVIFVDYEGRRVGEDVINSVILFFTMFILSFGVLAVLLSLTGLQTKTAITAAWTAIANVGPAFGPEVSATGAVDRFPAVAKWLMIGGMLVGRLELLSVFVLLTPRFWRS | failed |
| MGKKLDALLGRSFKTNKFKSLITLALTRLSILKNQRQARLSQAISDVTELLKLGQHEHAYHRVDQVVKDQNTLDVLFFIHGYFTLCLDRIHLFEHNRDCPEELLEAVSGLLFAASRIGEFPELQEIRNVLISRFGKDLAARSIELRSNCGVDPKIIQKLSTRPPPKEVRMKALKEIAAENNIVLKLDQASTSTEGTTNMQGTSDVSKTKLTSKDGRGEGYGLSDSVKRGKKKYKDVADAAQAAFESAAHAAEAAQAAVELSQFSPRGHDSPGNIGGENSFHGSENKESEQEQEGNDDSSEGEGDVMSESKRSMSDSEDIIDVPVMSFREDPVKLLEKDTIIYDSEEETQPSVETITISKSKDEQNRMVGSNRADTRHVDHMVRSIEDPIMRKAGLKGPVSVRTRQVRGY | failed |
| MRYWKNSRIKMFEQEDEWISKTQMKKQMNDLQDLGMALTKLSNDTLKKIGLDADLYEAVTAYKKITSNGALKRQAQFIGRLMRDTDPAPIEAFLAKLRGDDAAHNAFLQRVEQARVRLLADDGALTQFMSDFPHADAGKLRTLIRNTKKEQEQNKPPKNFRALFQELKTVMENGDAEI | failed |
